# Reference: PMC8539536, “Generation of a Soluble Form of Human Endoglin Fused to Green Fluorescent Protein” (International Journal of Molecular Sciences, 2021)
# B1: endoglin–GFP fusion protein (extracellular domain of human endoglin fused with EGFP, from pEGFP–N1/Eng.EC) (domain or fragment, UniProt P17813 26-586, looked up)
# chain: ETVHCDLQPVGPERGEVTYTTSQVSKGCVAQAPNAILEVHVLFLEFPTGPSQLELTLQASKQNGTWPREVLLVLSVNSSVFLHLQALGIPLHLAYNSSLVTFQEPPGVNTTELPSFPKTQILEWAAERGPITSAAELNDPQSILLRLGQAQGSLSFCMLEASQDMGRTLEWRPRTPALVRGCHLEGVAGHKEAHILRVLPGHSAGPRTVTVKVELSCAPGDLDAVLILQGPPYVSWLIDANHNMQIWTTGEYSFKIFPEKNIRGFKLPDTPQGLLGEARMLNASIVASFVELPLASIVSLHASSCGGRLQTSPAPIQTTPPKDTCSPELLMSLIQTKCADDAMTLVLKKELVAHLKCTITGLTFWDPSCEAEDRGDKFVLRSAYSSCGMQVSASMISNEAVVNILSSSSPQRKKVHCLNMDSLSFQLGLYLSPHFLQASNTIEPGQQSFVQVRVSPSVSEFLLQLDSCHLDLGPEGGTVELIQGRAAKGNCVSLLSPSPEGDPRFSFLLHFYTVPIPKTGTLSCTVALRPKTGSQDQEVHRTVFMRLNIISPDLSGCTSKG
# notes: then a linker of 19 amino acids and 239 residues of GFP, 844 amino acids in all; Disulfide-linked dimer of ~275 kDa; glycosylated; also called Eng–GFP; source: CHO-K1, stably transfected with pEGFP–N1/Eng.EC, secreted, in culture medium; not shown: EGFP, C-terminal, kept
# Target: the molecule itself
# Test: SDS-PAGE under reducing and nonreducing conditions with Western blot; 3-day culture medium of CHO-K1 transfectants separated under reducing or nonreducing conditions; immunodetection with anti-GFP antibodies; positions of dimer and monomer compared
protein,measurement,value
B1,stoichiometry N,2
